In series [1] the target is T1, PCBP-2 (poly(C)-binding protein 2) (UniProt Q15366 1-365). Description: ELONA-qPCR; Kd in range 8.4-89.9 nM, value in figure; ELONA: 100 mM HEPES pH 7.4, 100 mM NaCl, 6 mM MgCl2, 37 °C, 60 min, PCBP-2 (10 pmol) immobilized on Cu2+ plates; EMSA: 40 mM Tris-HCl pH 7.5, 250 mM NaCl, 0.1%. The following applies: protein: recombinant; tags: N-terminal 6xHis.
The target of series [2] is T1, PCBP-2 (poly(C)-binding protein 2). Description: ELONA-RTqPCR; Kd in range 24.1-276.5 nM, value in figure; ELONA: 100 mM HEPES pH 7.4, 100 mM NaCl, 6 mM MgCl2, 37 °C, 60 min, PCBP-2 (10 pmol) immobilized on Cu2+ plates; EMSA: 40 mM Tris-HCl pH 7.5, 250 mM NaCl, 0.1%. The following applies: protein: recombinant; tags: N-terminal 6xHis. For orientation: A gel shift assay detects complexes by their altered migration in electrophoresis.

Series [3] shares this target. The series can be described thus: ELONA-RTqPCR; Kd in range 24.1-276.5 nM, value in figure; highest RNA Bmax; ELONA: 100 mM HEPES pH 7.4, 100 mM NaCl, 6 mM MgCl2, 37 °C, 60 min, PCBP-2 (10 pmol) immobilized on Cu2+ plates; EMSA: 40 mM Tris-HCl pH 7.5, 250 mM NaCl, 0.1%. The following applies: protein: recombinant; tags: N-terminal 6xHis.
Series [4] shares this target. The series can be described thus: EMSA; 0.1-27.1 nM protein; two retarded complexes; ELONA: 100 mM HEPES pH 7.4, 100 mM NaCl, 6 mM MgCl2, 37 °C, 60 min, PCBP-2 (10 pmol) immobilized on Cu2+ plates; EMSA: 40 mM Tris-HCl pH 7.5, 250 mM NaCl, 0.1%. The following applies: protein: recombinant; tags: N-terminal 6xHis; label: 32P-CTP uniform.
The target is the same in series [5]. The series can be described thus: ELONA-qPCR; Kd in range 8.4-89.9 nM, value in figure; highest DNA Bmax; ELONA: 100 mM HEPES pH 7.4, 100 mM NaCl, 6 mM MgCl2, 37 °C, 60 min, PCBP-2 (10 pmol) immobilized on Cu2+ plates; EMSA: 40 mM Tris-HCl pH 7.5, 250 mM NaCl, 0.1%. The following applies: protein: recombinant; tags: N-terminal 6xHis.
The target is the same in series [6]. The series can be described thus: ELONA-RTqPCR; 6 mM Mg2+; ELONA: 100 mM HEPES pH 7.4, 100 mM NaCl, 6 mM MgCl2, 37 °C, 60 min, PCBP-2 (10 pmol) immobilized on Cu2+ plates; EMSA: 40 mM Tris-HCl pH 7.5, 250 mM NaCl, 0.1%. The following applies: protein: recombinant; tags: N-terminal 6xHis.
The target is the same in series [7]. The series can be described thus: ELONA-qPCR; 6 mM Mg2+; ELONA: 100 mM HEPES pH 7.4, 100 mM NaCl, 6 mM MgCl2, 37 °C, 60 min, PCBP-2 (10 pmol) immobilized on Cu2+ plates; EMSA: 40 mM Tris-HCl pH 7.5, 250 mM NaCl, 0.1%. The following applies: protein: recombinant; tags: N-terminal 6xHis.

By Kd is commonly meant a measure of binding affinity in units of concentration.

T1 sequence (Q15366 whole entry): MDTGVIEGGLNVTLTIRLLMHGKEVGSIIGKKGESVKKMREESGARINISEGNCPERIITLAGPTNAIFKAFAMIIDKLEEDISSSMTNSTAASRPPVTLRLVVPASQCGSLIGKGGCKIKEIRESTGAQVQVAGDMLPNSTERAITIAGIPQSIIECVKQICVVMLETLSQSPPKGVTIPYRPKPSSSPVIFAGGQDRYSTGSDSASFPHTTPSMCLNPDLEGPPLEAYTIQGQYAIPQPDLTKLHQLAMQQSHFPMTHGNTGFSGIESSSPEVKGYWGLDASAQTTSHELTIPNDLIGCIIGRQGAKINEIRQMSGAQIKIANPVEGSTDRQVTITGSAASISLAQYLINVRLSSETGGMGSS

B1: 05DS10-01 (ssDNA)
DNA: GCGGATCCAGACTGGTGTGCACAGCACATGCATTACTGCGGTAATCCGTGTCCTTTGTGCCCTAAAGACAAGCTTC
Take B1: the binding result in series [1] was “binds”.

B2: 05RS10-19 (ssRNA)
RNA: GGGGCGGAUCCAGACUGGUGUAAUCGAUCUUGCAUGCUAUUCGUCAAUCAACUCUUGCCGGCCCUAAAGACAAGCUUC
B2: the binding result in series [2] was “binds”.

B3: 05RS10-30 (ssRNA)
RNA: GGGGCGGAUCCAGACUGGUGUUUCCGCAAAGAGUGGUCUUUGUUAAUGUCAGGUUUCUUCGGCCCUAAAGACAAGCUUC
For B3, the binding result in series [2] was “binds”.

B4: 05RS10-32 (ssRNA)
RNA: GGGGCGGAUCCAGACUGGUGUCUUCCUGCUUGUGUUAUUUUCUAUUGUCGUGCGUGUUCGGGCCCUAAAGACAAGCUUC
On to B4, for which the binding result in series [3] is recorded as “binds”.

B5: 05RS10-32-32P (ssRNA)
RNA: B4 RNA
As to B5, the binding result in series [4] is “binds”.

B6: 05DS10-18 (ssDNA)
DNA: GCGGATCCAGACTGGTGTCCTATCTATAATTTTGCAGTCCACGTTTCTCTTGTGTGTGCCCTAAAGACAAGCTTC
Turning to B6, the binding result in series [1] is given as “binds”.

B7: 05DS10-05 (ssDNA)
DNA: GCGGATCCAGACTGGTGTACCTGTTAGCAAGAGTTTATTATGTAAAGATATCCGTTGGGCCCTAAAGACAAGCTTC
Consider B7, for which the binding result in series [5] is reported as “binds”.

B8: 05RS10-11 (ssRNA)
RNA: GGGGCGGAUCCAGACUGGUGUGAUCAUAUUAAUAAGACGCUUCCAGGUACGUCGCUGUUGGGCCCUAAAGACAAGCUUC
Regarding B8, in series [2], the binding result was “binds”.

B9: 05RS10-34 (ssRNA)
RNA: GGGGCGGAUCCAGACUGGUGUGAACACAGACGAGAACGUUGCAUAAAACCGCUUUUUUGGGCCCUAAAGACAAGCUUC
For B9, in series [2], the binding result is on record as “binds”.

B10: 05DS10-22 (ssDNA)
DNA: GCGGATCCAGACTGGTGTCAATGGTACTCTTCATTGTAGTCGCTTTGTTTATTAGCCGGCCCTAAAGACAAGCTTC
Consider B10, for which, in series [1], the binding result was “binds”.

B11: 05DS10-12 (ssDNA)
DNA: GCGGATCCAGACTGGTGTGCAGGTATGCCGGATCATGTCGTGAAAGTATCCATTTCTCGCCCTAAAGACAAGCTTC
Regarding B11, the binding result in series [1] is listed as “binds”.

B12: 05RS10-09 (ssRNA)
RNA: GGGGCGGAUCCAGACUGGUGUACACGGUGUUUAGUAGUUUAAUGAAUCUUUUAGUUCUUGGGCCCUAAAGACAAGCUUC
As for B12, the Kd in series [6] was found to be 24.1 nM.

B13: 05DS10-21 (ssDNA)
DNA: GCGGATCCAGACTGGTGTGGAGGTTAGCCGAAACACGTATACGCGTATTTATCCTCGGGCCCTAAAGACAAGCTTC
In the case of B13, the Kd in series [7] is 8.4 nM.

B14: 05DS10-02 (= 05DS10-03) (ssDNA)
DNA: GCGGATCCAGACTGGTGTACTGGGCTAGTTGCCTCTGCAGATTAGATGATGACAGTGGCCCTAAAGACAAGCTTC
Regarding B14, the binding result in series [1] is “binds”.

B15: 05DS10-26 (ssDNA)
DNA: GCGGATCCAGACTGGTGTGGGAATGTTGTTTATGTATTTGTTCTGAGCTCTACCTTTGCCCTAAAGACAAGCTTC
For B15, the binding result in series [1] is on record as “binds”.

B16: 05RS10-18 (ssRNA)
RNA: GGGGCGGAUCCAGACUGGUGUUUAAUUAUGUAAGUAAAUUGUUUUUUGACUCUCGCAUUGGGCCCUAAAGACAAGCUUC
B16: the binding result in series [2] was “binds”.

B17: 05RS10-04 (ssRNA)
RNA: GGGGCGGAUCCAGACUGGUGUCAUUUAGCAAAAACACUUGUAUAAUUCAAGUCGAUGUUGGGCCCUAAAGACAAGCUUC
As to B17, in series [2], the binding result is “binds”.
